# Test results: US20240109955A1
# B1: F769-E12 (antibody, V domains shown)
# VH: EVQLVESGGGLIQPGGSLRLSCAASGVIVSYNYMNWVRQAPGKGLEWVSVIYSGGSTFYADSVRGRFTISRDNSKNTLYLQMNSLRAEDTAVYYCARDLGPAGAFDIWGLGTMVTVSS
# VL: EIVLTQSPGTLSLSPGETATLSCRASQSFSSDLAWYQQKPGQAPRLLIYGASSRATGIPDRFSGSGSGTDFTLTISRLEPADFAVYYCQQYGSSPPVTFGGGTKVEIK
# B2: MX1057 (trispecific antibody)
# chain 1: QTVVTQEPSFSVSPGGTVTLTCGLSSGSVSTAYFPSWYQQTPGQAPRTLIYGTNTRSSGVPDRFSGSILGNKAALTITGAQADDESDYYCVLYMGRGIVVFGGGTKLTVLGGSSGDTVMTQSPLSLPVTPGEPASISCRSSQSLLNSNGYNYLDWYVQKPGQSPQLLIYLGSNRASGVPDRFSGSGSGTDFTLKISRVEAEDVGVYYCMQPLQTPLFTFGPGTKVEIKGGGGSGGSGSGGGGSASGSGQVTLRESGPALVKPTQTLTLTCTFSGFSLSTRGVCVSWIRQPPGKALEWLAFIDWDDDKYYNTSLKTRLTISKDTSKNQVVLTMTNVHPVDTATYYCARISSHHGSSWCTTFDYWGQGALVTVSAGGSSGQVQLVESGGGVVQPGRSLRLSCAASGFTLSSYGMHWVRQAPGKGLEWVAVISYDGSNKYYVDSVKGRFTISRDNSKNTLYLQMNSLRAEDTAVYYCRWAYWELLPDYYYGMDVWGQGTTVTVSSASGGSGDKTHTCPPCPAPELLGGPSVFLFPPKPKDTLMISRTPEVTCVVVDVSHEDPEVKFNWYVDGVEVHNAKTKPREEQYNSYVVSVLTVLHQDWLNGKEYKCKVSNKALPAPIEKTISKAKGQPREPQVYTLPPCRDELTKNQVSLWCLVKGFYPSDIAVEWESNGQPENNYKTTPPVLDSDGSFFKKLTVDKSRWQQGNVFSCSVLHEALHSHYTQKSLSLSPG
# chain 2: EIVMTQSPAILSVSPGERATLSCRASQSVAINLAWYQQKPGQAPRLLIYAASSRATGIPGRFSGSGSETNFTLTISSLQSGDFAVYYCQQYITWPPSYTFGQGTKLEIKGGSSGDTVMTQSPLSLPVTPGEPASISCRSSQSLLNSNGYNYLDWYVQKPGQSPQLLIYLGSNRASGVPDRFSGSGSGTDFTLKISRVEAEDVGVYYCMQPLQTPLFTFGPGTKVEIKGGGGSGGSGSGGGGSASGSGQVTLRESGPALVKPTQTLTLTCTFSGFSLSTRGVCVSWIRQPPGKALEWLAFIDWDDDKYYNTSLKTRLTISKDTSKNQVVLTMTNVHPVDTATYYCARISSHHGSSWCTTFDYWGQGALVTVSAGGSSGEVQLVESGGALIQPGGSLRLSCAASGIIVSANYMSWVRQAPGKGLEWVSVIYSGGSTFYADSVKGRFTISRDNSKNTLYLEMNSLRAEDTAVYYCARDAPILGVSDWGQGTLVTVSSASGGSGDKTHTCPPCPAPELLGGPSVFLFPPKPKDTLMISRTPEVTCVVVDVSHEDPEVKFNWYVDGVEVHNAKTKPREEQYNSYVVSVLTVLHQDWLNGKEYKCKVSNKALPAPIEKTISKAKGQPREPQVCTLPPSRDELTKNQVSLSCAVKGFYPSDIAVEWESNGQPENNYKTTPPVLDSDGSFFLVSKLTVDKSRWQQGNVFSCSVLHEALHSHYTQKSLSLSPG
# B3: MX1058 (trispecific antibody)
# chain 1: B2 chain 1
# chain 2: DTVMTQSPLSLPVTPGEPASISCRSSQSLLNSNGYNYLDWYVQKPGQSPQLLIYLGSNRASGVPDRFSGSGSGTDFTLKISRVEAEDVGVYYCMQPLQTPLFTFGPGTKVEIKGGSSGEIVMTQSPAILSVSPGERATLSCRASQSVAINLAWYQQKPGQAPRLLIYAASSRATGIPGRFSGSGSETNFTLTISSLQSGDFAVYYCQQYITWPPSYTFGQGTKLEIKGGGGSGGSGSGGGGSASGSGEVQLVESGGALIQPGGSLRLSCAASGIIVSANYMSWVRQAPGKGLEWVSVIYSGGSTFYADSVKGRFTISRDNSKNTLYLEMNSLRAEDTAVYYCARDAPILGVSDWGQGTLVTVSSGGSSGQVTLRESGPALVKPTQTLTLTCTFSGFSLSTRGVCVSWIRQPPGKALEWLAFIDWDDDKYYNTSLKTRLTISKDTSKNQVVLTMTNVHPVDTATYYCARISSHHGSSWCTTFDYWGQGALVTVSAASGGSGDKTHTCPPCPAPELLGGPSVFLFPPKPKDTLMISRTPEVTCVVVDVSHEDPEVKFNWYVDGVEVHNAKTKPREEQYNSYVVSVLTVLHQDWLNGKEYKCKVSNKALPAPIEKTISKAKGQPREPQVCTLPPSRDELTKNQVSLSCAVKGFYPSDIAVEWESNGQPENNYKTTPPVLDSDGSFFLVSKLTVDKSRWQQGNVFSCSVLHEALHSHYTQKSLSLSPG
# B4: E76-B8 (antibody, V domains shown)
# VH: EVQLVESGGALIQPGGSLRLSCAASGIIVSANYMSWVRQAPGKGLEWVSVIYSGGSTFYADSVKGRFTISRDNSKNTLYLEMNSLRAEDTAVYYCARDAPILGVSDWGQGTLVTVSS
# VL: EIVMTQSPAILSVSPGERATLSCRASQSVAINLAWYQQKPGQAPRLLIYAASSRATGIPGRFSGSGSETNFTLTISSLQSGDFAVYYCQQYITWPPSYTFGQGTKLEIK
# B5: F770-E8 (antibody, V domains shown)
# VH: QVTLRESGPALVKPTQTLTLTCTFSGFSLSTRGVCVSWIRQPPGKALEWLAFIDWDDDKYYNTSLKTRLTISKDTSKNQVVLTMTNVHPVDTATYYCARISSHHGSSWCTTFDYWGQGALVTVSA
# VL: DTVMTQSPLSLPVTPGEPASISCRSSQSLLNSNGYNYLDWYVQKPGQSPQLLIYLGSNRASGVPDRFSGSGSGTDFTLKISRVEAEDVGVYYCMQPLQTPLFTFGPGTKVEIK
# Target: SARS-CoV-2 spike (S) protein, Omicron sublineage BA.2.75.2 (SARS-CoV-2)
# Assay: cell-based or functional assay
Binder,"IC50, pseudovirus neutralization [µg/mL]","IC80, pseudovirus neutralization [µg/mL]"
B1,0.00699,0.0401
B2,0.00127,0.00379
B3,0.00403,0.01
B4,0.0122,0.0274
B5,0.00172,0.0059

# Target: SARS-CoV-2 spike (S) protein, Omicron sublineage BQ.1 (SARS-CoV-2)
# Assay: cell-based or functional assay
Binder,"IC50, pseudovirus neutralization [µg/mL]","IC80, pseudovirus neutralization [µg/mL]"
B1,0.0119,0.0409
B2,0.0083,0.0236
B3,0.016,0.032
B4,0.015,0.0496
B5,0.124,5.19

# Target: SARS-CoV-2 spike (S) protein, Omicron sublineage BA.4/5 (SARS-CoV-2)
# Assay: cell-based or functional assay
Binder,"IC50, pseudovirus neutralization [µg/mL]","IC80, pseudovirus neutralization [µg/mL]"
B1,0.00462,0.00921
B2,0.00404,0.00742
B3,0.00274,0.00551
B4,0.00697,0.0148
B5,0.00013,0.00049

# Target: SARS-CoV-2 spike (S) protein, Omicron sublineage BQ.1.1 (SARS-CoV-2)
# Assay: cell-based or functional assay
Binder,"IC50, pseudovirus neutralization [µg/mL]","IC80, pseudovirus neutralization [µg/mL]"
B1,0.00529,0.0174
B2,0.0123,0.0561
B3,0.00449,0.0285
B4,0.00457,0.0217
B5,0.496,1.8

# Target: SARS-CoV-2 spike (S) protein, Omicron sublineage XBB (SARS-CoV-2)
# Assay: cell-based or functional assay
Binder,"IC50, pseudovirus neutralization [µg/mL]","IC80, pseudovirus neutralization [µg/mL]"
B1,0.0126,0.0311
B2,0.00639,0.0355
B3,0.0142,0.0318
B4,0.0134,0.0472
B5,0.0615,0.705
